From paper PMC2997670 (The Biochemical journal, 2010)

B1: PcpF, S-glutathionyl-(chloro)hydroquinone reductase of Sphingobium chlorophenolicum ATCC 39723 (enzyme, UniProt Q8KN33 1-313, looked up)
chain: MGLLIDGVWRDAWYDTKSSGGRFVRKESQYRGGLDAGFRGEPGRYHLYAGFACPWAHRVLIMRALKGLEEMISVSMVNAYMGENGWTFLPGDDVVPDSINGADYLYQVYTAADPTYTGRVTIPILWDKVEKRILNNESSEIIRILNSAFDDVGALPGDYYPAEFRPEIDRINARVYETLNNGVYRSGFATTQEAYEEAFYPLFDTLDWLEEHLTGREWLVGDRLTEADIRLFPTLVRFDAIYHGHFKCNLRRIADYPNLSRLVGKLASHERVAPTINLRHAKAHYYGSHPSVNPTGIVPVGPAQPLPGLTLQS
B2: ECM4 (extracellular mutant 4) of Saccharomyces cerevisiae (enzyme, S. cerevisiae, UniProt P36156 1-370, looked up)
chain: MSKQWASGTNGAFKRQVSSFRETISKQHPIYKPAKGRYWLYVSLACPWAHRTLITRALKGLTSVIGCSVVHWHLDEKGWRFLDMEKQLEDSEDFLEHWHDVAGGIRTAKEDSSKSFAEIKNDSQRFMVDATNEPHYGYKRISDLYYKSDPQYSARFTVPVLWDLETQTIVNNESSEIIRILNSSAFDEFVDDDHKKTDLVPAQLKTQIDDFNSWVYDSINNGVYKTGFAEKAEVYESEVNNVFEHLDKVEKILSDKYSKLKAKYGEEDRQKILGEFFTVGDQLTEADIRLYTTVIRFDPVYVQHFKCNFTSIRAGYPFIHLWVRNLYWNYDAFRYTTDFDHIKLHYTRSHTRINPLGITPLGPKPDIRPL

Biological target: the molecule itself
Assay: SEC + SEC-MALS

Row | Protein | stoichiometry N
1 | B1 | 2
2 | B2 | 2
